Results reported in US20160200782A1.
Blank lines part the entries; values can stand above or below the substance they belong to.

What was measured:
Experiment in all cases: cell-based or functional assay
ACK1(h) (human) = ACK1(h) (human) (UniProt Q07912)
ALK(h) (human) = ALK(h) (human) (UniProt Q9UM73)
Arg(h) (human) = Arg(h) (human) (UniProt P42684)
CK1γ1(h) (human) = CK1γ1(h) (human) (UniProt Q9HCP0)
CK1γ2(h) (human) = CK1γ2(h) (human) (UniProt P78368)
CK1γ3(h) (human) = CK1γ3(h) (human) (UniProt Q9Y6M4)
CK2α2(h) (human) = CK2α2(h) (human) (UniProt P19784)
CLK2(h) (human) = CLK2(h) (human) (UniProt P49760)
DAPK1(h) (human) = DAPK1(h) (human) (UniProt P53355)
DAPK2(h) (human) = DAPK2(h) (human) (UniProt Q9UIK4)
[1] = target: EGFR(T790M,L858R)(h) (human) (UniProt P00533)
EphA2(h) (human) = EphA2(h) (human) (UniProt P29317)
FGFR1(V561M)(h) (human) = FGFR1(V561M)(h) (human) (UniProt P11362)
FGFR2(N549H)(h) (human) = FGFR2(N549H)(h) (human) (UniProt P21802)
FGFR4(h) (human) = FGFR4(h) (human) (UniProt P22455)
Fgr(h) (human) = Fgr(h) (human) (UniProt P09769)
Fms(Y969C)(h) (human) = Fms(Y969C)(h) (human) (UniProt P07333)
GRK5(h) (human) = GRK5(h) (human) (UniProt P34947)
GSK3β(h) (human) = GSK3β(h) (human) (UniProt P49841)
IGF-1R(h) (human) = IGF-1R(h) (human) (UniProt P08069)
JNK1α1(h) (human) = JNK1α1(h) (human) (UniProt P45983)
Lck(h) (human) = Lck(h) (human) (UniProt P06239)
MAPK1(h) (human) = MAPK1(h) (human) (UniProt P28482)
MKK6(h) (human) = MKK6(h) (human) (UniProt P52564)
MKK7β(h) (human) = MKK7β(h) (human) (UniProt O14733)
PAK6(h) (human) = PAK6(h) (human) (UniProt Q9NQU5)
PKCα(h) (human) = PKCα(h) (human) (UniProt P17252)
PTK5(h) (human) = PTK5(h) (human) (UniProt P42685)
PhKγ2(h) (human) = PhKγ2(h) (human) (UniProt P15735)
Plk1(h) (human) = Plk1(h) (human) (UniProt P53350)
Ret(h) (human) = Ret(h) (human) (UniProt P07949)
Rsk2(h) (human) = Rsk2(h) (human) (UniProt P51812)
TAK1(h) (human) = TAK1(h) (human) (UniProt O43318)
TAO1(h) (human) = TAO1(h) (human) (UniProt Q7L7X3)
TLK2(h) (human) = TLK2(h) (human) (UniProt Q86UE8)
Tie2(R849W)(h) (human) = Tie2(R849W)(h) (human) (UniProt Q02763)
TrkA(h) (human) = TrkA(h) (human) (UniProt P04629)
Yes(h) (human) = Yes(h) (human) (UniProt P07947)
ZAP-70(h) (human) = ZAP-70(h) (human) (UniProt P43403)
cKit(D816V)(h) (human) = cKit(D816V)(h) (human) (UniProt P10721)
eEF-2K(h) (human) = eEF-2K(h) (human) (UniProt O00418)
PAK3(h) (human) = PAK3(h) (human) (UniProt O75914)

Chain of cKit(D816V)(h) (human) (P10721 544-976 D816V limits assumed): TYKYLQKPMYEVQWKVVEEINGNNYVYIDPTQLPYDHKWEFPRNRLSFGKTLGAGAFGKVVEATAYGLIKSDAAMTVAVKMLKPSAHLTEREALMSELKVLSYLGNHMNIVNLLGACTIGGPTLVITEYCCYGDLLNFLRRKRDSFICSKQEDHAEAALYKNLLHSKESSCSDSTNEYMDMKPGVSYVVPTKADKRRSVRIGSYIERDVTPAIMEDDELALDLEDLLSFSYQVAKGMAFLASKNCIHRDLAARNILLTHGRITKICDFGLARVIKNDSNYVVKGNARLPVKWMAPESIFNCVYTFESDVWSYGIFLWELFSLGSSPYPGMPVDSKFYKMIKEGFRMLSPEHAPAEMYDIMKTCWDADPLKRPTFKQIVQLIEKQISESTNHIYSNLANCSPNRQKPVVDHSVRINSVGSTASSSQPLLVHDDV
Chain of DAPK1(h) (human) (P53355 1-289 limits assumed): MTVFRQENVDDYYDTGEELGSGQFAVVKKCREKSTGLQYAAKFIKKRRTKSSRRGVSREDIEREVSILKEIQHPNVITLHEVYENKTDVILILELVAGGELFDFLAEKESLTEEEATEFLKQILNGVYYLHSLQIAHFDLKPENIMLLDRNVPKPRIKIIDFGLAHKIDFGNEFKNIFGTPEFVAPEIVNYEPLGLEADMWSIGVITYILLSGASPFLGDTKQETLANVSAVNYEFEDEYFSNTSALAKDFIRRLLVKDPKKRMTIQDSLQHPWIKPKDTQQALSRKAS
Chain of FGFR4(h) (human) (P22455 460-802 limits assumed): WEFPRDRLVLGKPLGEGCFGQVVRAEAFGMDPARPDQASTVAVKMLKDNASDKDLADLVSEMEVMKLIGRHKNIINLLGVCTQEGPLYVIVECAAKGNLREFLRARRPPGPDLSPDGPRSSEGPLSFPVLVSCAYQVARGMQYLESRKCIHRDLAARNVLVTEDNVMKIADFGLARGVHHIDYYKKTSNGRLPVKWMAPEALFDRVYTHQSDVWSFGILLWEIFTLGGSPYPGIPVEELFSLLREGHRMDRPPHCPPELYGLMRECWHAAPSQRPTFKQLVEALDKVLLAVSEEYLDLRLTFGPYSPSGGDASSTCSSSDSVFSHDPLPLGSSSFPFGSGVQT
Chain of DAPK2(h) (human) (Q9UIK4 whole entry): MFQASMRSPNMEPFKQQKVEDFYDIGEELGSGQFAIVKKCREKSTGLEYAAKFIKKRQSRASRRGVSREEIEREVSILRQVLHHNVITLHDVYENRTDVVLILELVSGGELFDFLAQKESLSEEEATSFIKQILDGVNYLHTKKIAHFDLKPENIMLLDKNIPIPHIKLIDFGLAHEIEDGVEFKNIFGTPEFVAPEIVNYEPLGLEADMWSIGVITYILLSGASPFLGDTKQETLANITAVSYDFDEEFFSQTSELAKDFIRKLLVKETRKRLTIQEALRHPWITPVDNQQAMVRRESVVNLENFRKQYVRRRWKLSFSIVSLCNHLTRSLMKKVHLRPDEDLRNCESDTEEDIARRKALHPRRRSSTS
Chain of PhKγ2(h) (human) (P15735 whole entry): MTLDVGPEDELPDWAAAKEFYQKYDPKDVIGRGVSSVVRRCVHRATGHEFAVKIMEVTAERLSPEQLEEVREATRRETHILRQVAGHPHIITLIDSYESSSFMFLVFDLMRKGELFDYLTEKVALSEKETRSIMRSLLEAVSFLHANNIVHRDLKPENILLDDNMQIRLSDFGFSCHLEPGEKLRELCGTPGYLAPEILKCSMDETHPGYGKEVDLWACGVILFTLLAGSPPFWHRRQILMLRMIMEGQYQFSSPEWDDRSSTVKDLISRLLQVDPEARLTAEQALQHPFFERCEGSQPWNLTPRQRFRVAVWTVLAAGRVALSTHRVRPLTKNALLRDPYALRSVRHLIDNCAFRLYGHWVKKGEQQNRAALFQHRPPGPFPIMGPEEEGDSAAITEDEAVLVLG
Chain of TLK2(h) (human) (Q86UE8 whole entry): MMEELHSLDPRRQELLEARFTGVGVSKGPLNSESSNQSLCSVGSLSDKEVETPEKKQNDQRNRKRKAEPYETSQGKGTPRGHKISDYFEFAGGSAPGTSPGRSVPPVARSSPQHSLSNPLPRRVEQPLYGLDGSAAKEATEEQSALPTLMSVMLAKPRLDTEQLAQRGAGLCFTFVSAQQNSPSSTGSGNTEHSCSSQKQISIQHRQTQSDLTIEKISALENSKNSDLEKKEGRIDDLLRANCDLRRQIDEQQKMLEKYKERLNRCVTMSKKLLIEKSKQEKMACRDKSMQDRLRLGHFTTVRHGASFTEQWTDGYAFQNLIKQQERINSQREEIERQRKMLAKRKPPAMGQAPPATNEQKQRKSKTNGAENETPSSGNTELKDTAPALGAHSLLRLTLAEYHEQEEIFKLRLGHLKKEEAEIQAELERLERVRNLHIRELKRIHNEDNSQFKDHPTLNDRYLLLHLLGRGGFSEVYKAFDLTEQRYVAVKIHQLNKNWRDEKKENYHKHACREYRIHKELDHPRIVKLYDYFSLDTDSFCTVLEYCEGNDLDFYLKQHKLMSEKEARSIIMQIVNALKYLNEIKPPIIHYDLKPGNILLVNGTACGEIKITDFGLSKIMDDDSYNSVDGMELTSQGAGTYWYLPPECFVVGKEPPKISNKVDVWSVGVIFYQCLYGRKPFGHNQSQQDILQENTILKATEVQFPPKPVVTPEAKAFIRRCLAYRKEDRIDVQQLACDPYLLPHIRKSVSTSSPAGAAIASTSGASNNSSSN
Chain of TAO1(h) (human) (Q7L7X3 1-320 limits assumed): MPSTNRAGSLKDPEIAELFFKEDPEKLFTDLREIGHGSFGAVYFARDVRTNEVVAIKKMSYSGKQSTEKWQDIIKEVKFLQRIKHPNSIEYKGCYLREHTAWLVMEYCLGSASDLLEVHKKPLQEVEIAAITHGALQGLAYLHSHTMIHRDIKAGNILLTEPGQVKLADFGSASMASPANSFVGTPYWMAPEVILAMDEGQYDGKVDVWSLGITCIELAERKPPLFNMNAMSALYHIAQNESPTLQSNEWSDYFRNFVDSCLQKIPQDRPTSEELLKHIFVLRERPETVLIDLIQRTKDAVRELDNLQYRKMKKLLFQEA
Chain of Arg(h) (human) (P42684 38-1182 limits assumed): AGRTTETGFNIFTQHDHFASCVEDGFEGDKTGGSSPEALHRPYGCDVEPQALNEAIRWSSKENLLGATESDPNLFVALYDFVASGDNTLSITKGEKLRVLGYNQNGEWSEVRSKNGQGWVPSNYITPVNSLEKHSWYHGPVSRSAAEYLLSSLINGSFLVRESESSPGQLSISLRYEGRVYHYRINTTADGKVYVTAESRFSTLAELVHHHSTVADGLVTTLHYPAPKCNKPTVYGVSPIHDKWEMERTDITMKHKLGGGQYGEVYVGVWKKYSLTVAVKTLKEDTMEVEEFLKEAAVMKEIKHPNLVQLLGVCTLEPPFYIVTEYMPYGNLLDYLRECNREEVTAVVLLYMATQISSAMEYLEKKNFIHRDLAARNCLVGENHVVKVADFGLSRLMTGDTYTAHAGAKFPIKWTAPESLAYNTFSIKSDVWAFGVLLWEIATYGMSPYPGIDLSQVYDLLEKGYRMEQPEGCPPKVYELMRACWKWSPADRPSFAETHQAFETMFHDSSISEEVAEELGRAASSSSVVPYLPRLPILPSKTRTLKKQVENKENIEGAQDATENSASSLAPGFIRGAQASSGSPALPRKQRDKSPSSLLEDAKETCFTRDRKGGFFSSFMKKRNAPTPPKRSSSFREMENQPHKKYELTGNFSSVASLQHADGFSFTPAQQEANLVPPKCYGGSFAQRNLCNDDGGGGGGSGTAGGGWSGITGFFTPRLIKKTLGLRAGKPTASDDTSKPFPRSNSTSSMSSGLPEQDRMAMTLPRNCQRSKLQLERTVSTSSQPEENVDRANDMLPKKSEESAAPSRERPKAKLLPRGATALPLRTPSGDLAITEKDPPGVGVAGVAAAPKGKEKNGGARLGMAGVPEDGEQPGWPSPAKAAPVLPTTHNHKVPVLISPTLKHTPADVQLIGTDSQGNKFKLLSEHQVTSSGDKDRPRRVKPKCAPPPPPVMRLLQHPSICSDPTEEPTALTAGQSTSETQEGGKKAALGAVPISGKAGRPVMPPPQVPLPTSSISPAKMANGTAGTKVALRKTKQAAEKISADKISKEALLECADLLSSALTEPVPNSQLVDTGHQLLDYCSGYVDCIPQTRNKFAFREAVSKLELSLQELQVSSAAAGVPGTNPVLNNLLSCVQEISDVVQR
Chain of GSK3β(h) (human) (P49841 whole entry): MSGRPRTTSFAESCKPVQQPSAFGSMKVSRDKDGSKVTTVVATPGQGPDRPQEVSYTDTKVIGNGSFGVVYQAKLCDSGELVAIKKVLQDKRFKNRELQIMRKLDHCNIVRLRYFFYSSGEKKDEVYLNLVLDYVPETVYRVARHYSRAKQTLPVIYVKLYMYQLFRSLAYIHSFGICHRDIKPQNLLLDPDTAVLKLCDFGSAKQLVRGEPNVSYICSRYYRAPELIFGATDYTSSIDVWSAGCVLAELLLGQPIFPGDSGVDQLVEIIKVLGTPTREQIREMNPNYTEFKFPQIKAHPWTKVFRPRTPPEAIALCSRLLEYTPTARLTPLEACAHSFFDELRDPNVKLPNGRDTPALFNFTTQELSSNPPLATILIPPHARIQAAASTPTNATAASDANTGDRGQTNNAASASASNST
Chain of ACK1(h) (human) (Q07912 110-476 limits assumed): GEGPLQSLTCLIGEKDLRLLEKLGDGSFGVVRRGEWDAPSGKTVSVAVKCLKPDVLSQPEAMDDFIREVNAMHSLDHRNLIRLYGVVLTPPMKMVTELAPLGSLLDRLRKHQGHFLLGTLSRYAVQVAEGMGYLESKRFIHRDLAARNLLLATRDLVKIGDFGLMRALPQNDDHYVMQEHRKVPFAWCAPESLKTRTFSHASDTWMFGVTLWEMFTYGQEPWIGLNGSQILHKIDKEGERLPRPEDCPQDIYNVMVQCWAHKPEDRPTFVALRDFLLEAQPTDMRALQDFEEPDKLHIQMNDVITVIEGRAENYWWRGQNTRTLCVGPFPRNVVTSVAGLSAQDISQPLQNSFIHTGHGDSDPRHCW

Substance: MMI-0100 (peptide)
% activity (ACK1(h) (human)): 106%
% activity (ALK(h) (human)): 118%
% activity (Arg(h) (human)): 89%
% activity (CK1γ1(h) (human)): 110%
% activity (CK1γ2(h) (human)): 119%
% activity (CK1γ3(h) (human)): 105%
% activity (CK2α2(h) (human)): 104%
% activity (CLK2(h) (human)): 88%
% activity (DAPK1(h) (human)): 97%
% activity (DAPK2(h) (human)): 41%
% activity [1]: 93%
% activity (EphA2(h) (human)): 58%
% activity (FGFR1(V561M)(h) (human)): 108%
% activity (FGFR2(N549H)(h) (human)): 95%
% activity (FGFR4(h) (human)): 67%
% activity (Fgr(h) (human)): 54%
% activity (Fms(Y969C)(h) (human)): 126%
% activity (GRK5(h) (human)): 117%
% activity (GSK3β(h) (human)): 113%
% activity (IGF-1R(h) (human)): 102%
% activity (JNK1α1(h) (human)): 91%
% activity (Lck(h) (human)): 346%
% activity (MAPK1(h) (human)): 108%
% activity (MKK6(h) (human)): 74%
% activity (MKK7β(h) (human)): 137%
% activity (PAK6(h) (human)): 121%
% activity (PKCα(h) (human)): 94%
% activity (PTK5(h) (human)): 135%
% activity (PhKγ2(h) (human)): 62%
% activity (Plk1(h) (human)): 109%
% activity (Ret(h) (human)): 108%
% activity (Rsk2(h) (human)): 65%
% activity (TAK1(h) (human)): 116%
% activity (TAO1(h) (human)): 99%
% activity (TLK2(h) (human)): 113%
% activity (Tie2(R849W)(h) (human)): 102%
% activity (TrkA(h) (human)): 74%
% activity (Yes(h) (human)): 49%
% activity (ZAP-70(h) (human)): 79%
% activity (cKit(D816V)(h) (human)): 117%
% activity (eEF-2K(h) (human)): 113%

Substance: MMI-0200 (peptide)
% activity (ACK1(h) (human)): 97%
% activity (ALK(h) (human)): 95%
% activity (Arg(h) (human)): 82%
% activity (CK1γ1(h) (human)): 98%
% activity (CK1γ2(h) (human)): 104%
% activity (CK1γ3(h) (human)): 96%
% activity (CK2α2(h) (human)): 88%
% activity (CLK2(h) (human)): 97%
% activity (DAPK1(h) (human)): 113%
% activity (DAPK2(h) (human)): 92%
% activity [1]: 108%
% activity (EphA2(h) (human)): 95%
% activity (FGFR1(V561M)(h) (human)): 72%
% activity (FGFR2(N549H)(h) (human)): 104%
% activity (FGFR4(h) (human)): 75%
% activity (Fgr(h) (human)): 71%
% activity (Fms(Y969C)(h) (human)): 88%
% activity (GRK5(h) (human)): 135%
% activity (GSK3β(h) (human)): 132%
% activity (IGF-1R(h) (human)): 49%
% activity (JNK1α1(h) (human)): 106%
% activity (Lck(h) (human)): 113%
% activity (MAPK1(h) (human)): 97%
% activity (MKK6(h) (human)): 98%
% activity (MKK7β(h) (human)): 117%
% activity (PAK3(h) (human)): 50%
% activity (PAK6(h) (human)): 105%
% activity (PKCα(h) (human)): 100%
% activity (PTK5(h) (human)): 108%
% activity (PhKγ2(h) (human)): 86%
% activity (Plk1(h) (human)): 128%
% activity (Ret(h) (human)): 96%
% activity (Rsk2(h) (human)): 101%
% activity (TAK1(h) (human)): 124%
% activity (TAO1(h) (human)): 105%
% activity (TLK2(h) (human)): 129%
% activity (Tie2(R849W)(h) (human)): 89%
% activity (Yes(h) (human)): 93%
% activity (ZAP-70(h) (human)): 58%
% activity (cKit(D816V)(h) (human)): 118%
% activity (eEF-2K(h) (human)): 136%

% activity (ACK1(h) (human)): 64%
% activity (ALK(h) (human)): 12%
% activity (Arg(h) (human)): 22%
% activity (DAPK1(h) (human)): 0%
% activity (DAPK2(h) (human)): 3%
% activity [1]: 53%
% activity (FGFR4(h) (human)): 3%
% activity (GSK3β(h) (human)): 238%
% activity (Lck(h) (human)): 359%
% activity (MKK6(h) (human)): 18%
% activity (PKCα(h) (human)): 3%
% activity (PTK5(h) (human)): 96%
% activity (PhKγ2(h) (human)): 16%
% activity (Ret(h) (human)): 174%
% activity (Rsk2(h) (human)): 14%
% activity (TAO1(h) (human)): 24%
% activity (TLK2(h) (human)): 133%
% activity (TrkA(h) (human)): 24%
% activity (ZAP-70(h) (human)): 1%
% activity (cKit(D816V)(h) (human)): 30%
% activity (eEF-2K(h) (human)): 43%
Substance: MMI-0500 (peptide)
